B1: SCT-Fa035 (antibody, V domains shown)
VH: EVQLQQSGAELVKPGASVKLSCTDFGFNIKDYYMHWVKQRTEQGLEWIGRIDPEDGETKYVPKFQGKATITADTSSNTAFLHLTSLTSEDTAVYYCARSNPYYFDYWGQGTTLTVSS
VL: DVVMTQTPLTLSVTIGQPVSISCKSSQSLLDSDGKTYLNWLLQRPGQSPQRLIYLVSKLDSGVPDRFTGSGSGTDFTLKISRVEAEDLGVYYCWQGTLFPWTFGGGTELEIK
notes: murine IgG
B2: SCT-Fa005 (antibody, V domains shown)
VH: EVHLQQSVAEVVRPGASVNLSCTVSGFNNKNTYMYWVKQRPEQGLEWIGIIDPANGNVKYAPKFQGKATITADTSSNTAYLQLSSLTSEDTAIYYCARGSSRLYYALDYWGQGTSVTVSS
VL: DIVLTQSPASLAVSLGQRATISCRASESVDSYGNSFMHWYQQKPGQPPKLLIYRASNLESGIPARFSGSGSRTDFTLTIYPVEADDVATYYCQQSNEDPYTFGGGTKLEIK
notes: murine IgG
B3: SCT-Fa050 (antibody, V domains shown)
VH: EVQLQQSGPMLVKPGASVKMSCKASGNTFTAFYMSWVKQSHGKSLEWIGVVNPYNGGAGYNQKFKGKATLTVDKSSSTAYMELNGLTSEDSAVYYCLLWEFAHWGQGTLVTVSA
VL: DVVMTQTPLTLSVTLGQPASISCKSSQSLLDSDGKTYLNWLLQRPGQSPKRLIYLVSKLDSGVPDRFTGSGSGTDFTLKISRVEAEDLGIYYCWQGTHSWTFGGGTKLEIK
notes: murine IgG
B4: SCT-Fa053 (antibody, V domains shown)
VH: EVQLQQSGPVLVKPGASVKMSCKASGYSFTGYHMNWVKQSHGKSLEWIGIINPYNSATTYNQKFKGKATLTVDKSSSTAYMELNSLTSEDSVVYYCVRGAYGNPLDYWGQGTTLTVSS
VL: DIKMTQSPSSMYASLGERVTITCKASQDINSYLSWFQQKPGKSPKTLIYRANRLVDGVPSRFSGSGSGQDYSLTISSLEYEDMGIYYCLQYDEYPYTFGGGTKLEIK
notes: murine IgG
B5: SCT-Fa055 (antibody, V domains shown)
VH: EVQLQQSGPVLVKPGASVKMSCKASGYTFTDYHMNWVKQSHGKSLEWIGVISPYNGGTSQNQKFKGKATLTVDKSSSTAYMELNRLTSEDSAVYYCARSDYGSPLDYWGQGTTLTVSS
VL: DIKMTQSPSSMYASLGERVTITCKASQDINSYLRWFQQKPGKSPKTLIYRANRLVDGVPSRFSGSGSGQDYSLNISSLEYEDMGIYYCLQYDEFPYTFGGGTKLEIK
notes: murine IgG
B6: SCT-Fa059 (antibody, V domains shown)
VH: EVQLQQSGPVLVKPGASVKMSCQASGYSFTGYHMNWVKQSHGKSLEWIGIINPYNSGITYNQKFKGRATLTVDKSSDTAYMDLNSLTSEDSVVYYCVRGAYGNPLDYWGQGTTLTVSS
VL: DIRMTQSPSSIYASLGERVTITCKASQDINSYLSWFQQKPGKSPETLIYRTNRLVDGVPSRFSGSGSGQDYSLTISSLEYEDMGIYYCLQYDEYPYTFGGGTKLEIK
notes: murine IgG
B7: SCT-Fa054 (antibody, V domains shown)
VH: EVQLQQSGPVLVKPGASVKMSCKASGYSFTGYHMNWVKQSHGKSLEWIGIINPYNSATTYNQKFKGKATLTVDKSSSTAYMEVNSLTSEDSLVYYCVRGAYGNPLDYWGQGTTLTVSS
VL: DIKMTQSPSSMYASLGERVTITCKASQDINSYLSWFQQKPGKSPKTLIYRANRLLDGVPSRFSGSGSGQDYSLTISSLEYEDMGIYYCLQYDEYPYTFGGGTKLEIK
notes: murine IgG
B8: SCT-Fa061 (antibody, V domains shown)
VH: EVQLQQSGPVLVRPGASVKMSCKASGYSFTGYHMNWVKQSHVKSLEWIGIINPYNSATTYNQNFKGKATLTVDKSSSTAYMELNSLTSEDSVVYYCVRGAYGNPLDYWGQGTTLTVSS
VL: DIKMTQSPSSMYASLGERVTITCKASQDINSYLSWFQLKPGKSPKTLIYRANRLVDGVPSGFSGSGSGQDYSLTISSLEYEDMGIYYCLQYDEYPYTFGGGTKLEIK
notes: murine IgG
B9: SCT-Fa052 (antibody, V domains shown)
VH: EVQLQQSGPVLVKPGASVKMSCKASGYSFTGYHMNWVKQSHGKSLEWIGIINPYNSASTYNQKFKGKATLTVDKSSSTAYMELNSLTSEDSVVYYCVRGAYGNPLDYWGQGTTLTVSS
VL: DIKMTQSPSSMYASLGERVTITCKASQDINSYLSWFQQKPGKSPKTLIYRTNRLVDGVPSRFSGSGSGQDYSLTISSLEYEDMGIYYCLQYDEYPYTFGGGTKLEIK
notes: murine IgG
B10: SCT-Fa033 (antibody, V domains shown)
VH: EVQLQQSGAELVKPGASVKLSCTASGFNIKDYYMHWVRQRTEQGLEWIGRIDPEDGETKYAPKFQGKATITAATSSNTPYLQLSGLTSEDTAVYYCGRSNPYYFDYWGQGTTLTVSS
VL: DIQMNQSPSSLSASLGDRITINCHASQNINVWLSWYQQKPGNIPKLLIYKASNLHTGVPSRFSGSGSVTVFTLTISSLQPEDIATYYCQQGQNYPYTFGGGTKLEIK
notes: murine IgG
B11: SCT-Fa034 (antibody, V domains shown)
VH: EVQLQQSGAELVKPGASVKLSCTDFGFNIKDYYMHWVKQRTEQGLEWIGRIDPEDGETKYVPKFQGKATITADTSSNTAFLHLTSLTSEDTAVYYCARSNPYYFDYWGQGTTLTVSS
VL: DIQMNQSPSSLSASLGDTVTITCHASQTINVWLSWYQQKPGNIPKLLIYKASNLHTGVPSRFSGSGSGTGFTLTISSLQPEDIATYYCQQGQNYPYTFGGGTKLEIK
notes: murine IgG
B12: SCT-Fa043 (antibody, V domains shown)
VH: EVQLQQSGAELVRPGASVKLSCTASGFNIKDYYMHWVKQRTEQGLEWIGRIDPDNDEIKYAPKFQGKATLTADTSSNTASLQLSGLTSEDTAVYYCARSSPYYFDYWGQGTTLTVSS
VL: DIQMNQSPSSLSASLGDTITITCHASQNINVWLSWYQQKPGNIPKLLIYKASNLHTGVPSRFSGSGSVTGFTLTISSLQPEDIATYYCQQGQNIPYTFGGGTQLEIK
notes: murine IgG
B13: SCT-Fa047 (antibody, V domains shown)
VH: EVQLQQSGPELVKPGASVKISCKASGYTFTDYYMNWVKQSHGKSLEWIGDINLNNGGTVYNQKFRGKATLTVDKSSSTAYMELRSLTSEDSAVYYCEGLGGYWGQGTTLTVSS
VL: DVLMTQTPLSLPVSLGDQVSISCRSSQSIVHSNGNTYLEWYLQKPGQSPNLLIYKVANRLSGVPDRFSGSGSGTDFTLKISRVEAEDLGVYYCFQGSHVPFTFGSGTKLEIK
notes: murine IgG
B14: SCT-Fa048 (antibody, V domains shown)
VH: EVQLQQSGPELVKPGASVKISCKASGYTLTDYYMNWVKQSHGESLEWIGDINPNNGDINYNQKFKGKATLTADKSSSTAYMELRSLTSEDSAVYYCEGLGGYWGQGTTLTVSS
VL: DVLMTQTPLSLPVSLGDQASISCRSSQTIVHSNGNTYLEWYLQTPGQSPKLLIYKVSNRISGVPDRFSGSGSGTDFTLKISRVEAEDLGVYYCFQGSHVPFTFGSGTKLEIK
notes: murine IgG
B15: SCT-Fa049 (antibody, V domains shown)
VH: EVQLQQSGPELVKPGSSVKISCKASGYTLTDYYMNWVKQSHGESLEWIGDINPNNGDINYNQKFKGKATLTADKSSSTAYMELRSLTSEDSAVYYCEGLGGYWGQGTTLTVSS
VL: DVLMTQTPLSLPVSLGDQASISCRSSQTIVHSNGNTYLEWYLQTPGQSPKLLIYKVSNRISGVPDRFSGSGSGTDFTLKISRVEAEDLGVYYCFQGSHVPFTFGSGTKLEIK
notes: murine IgG
B16: SCT-Fa046 (antibody, V domains shown)
VH: EVQLQQSGPELVKPGASVKISCKASGYTFTDYNMHWVKQSHGKSLAWIGYIYPYNGGTGYNQKFKNKATLTVDDSSSTAYMDLRSLTSDDSAVYYCAREDYGSREWFAYWGQGTLVTVSA
VL: DVVMTQTPLSLPVSLGDQASISCRSSQSLVHSNGNTYLYWYLQKPGQSPKLLIYKVSNRFSGVPDRFSGSGSGTDFTLKISRVEAEDLGVYFCSQSTHVPLTFGAGTKLELK
notes: murine IgG
B17: SCT-Fa057 (antibody, V domains shown)
VH: EVQLQQSGPVLVKPGASVKMSCKASGYTFTDYYMNWVKQSHGKSLEWIGVINPYNGGTSYNQKFKGKATLTVDKSSSTAYMELNSLTSEDSAVYYCARGGDYDVNYSAMDYWGQGTSVTVSS
VL: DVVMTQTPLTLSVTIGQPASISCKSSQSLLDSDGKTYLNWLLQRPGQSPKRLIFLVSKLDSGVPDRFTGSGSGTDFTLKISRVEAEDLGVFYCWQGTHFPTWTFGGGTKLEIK
notes: murine IgG

target: T1, Human TIM-3 Human Fc tagged protein (human, fluorescently labeled with HiLyte Fluor 555 (sites not given)); assay: capture slide probed with labeled TIM-3-Fc;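 note: IgG from single CD138-enriched plasma cells, isolated from lymphocytes, immobilized on a derivatized glass slide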
T1 construct: Bought construct; also called TIM-3 protein tagged with human Fc; ACROBiosystems catalog no: TM3-H5258

Binding result, binds:
B1
B2
B3
B4
B5
B6
B7
B8
B9
B10
B11
B12
B13
B14
B15
B16
B17

Reference: US20230279105A1 (SINGLE CELL TECHNOLOGY, published 2023)
